Assay: yeast display, Sf9 membrane polyspecificity reagent, FACS + sequencing; frameworks hold sequencing errors
Outline: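 A nanobody's polyreactivity label depends on the gate it was sorted from. Yeast display cells were stained with 10% biotinylated, detergent-solubilized Sf9 membrane reagent for 1 hour at 4 °C, enriched on streptavidin microbeads and sorted by FACS. The low and high (top ~1%) gates were set on anti-HA fluorescence for expression and streptavidin fluorescence for reagent binding.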

Sequence | polyreactivity (PSR sort gate)
QVQLVESGGGLVQAGGSLRLSCAASGSIFYHYVMGWYRQAPGKERELVAAISSSGRTYYADSVKGRFTISRDNAKNTVYLQMNSLKPEDTAVYYCAAYQKYYLRKYEYWGQGTQVTVSS | low polyreactivity
QVQLVESGGGLVQAGGSLRLSCAASGSIFYINDAMGWYRQPPGKERELVAAISSSDGTTYYADSVKGRFTISRDNAKNTVYLQMNSLKPEDTAGYYCAAETRAVGYDGDYWGQGTQVTVSS | high polyreactivity
QVQLVESGGGLVQAGGSLRLSCAASGSIFYINTMGWYRQPPGKERELVAAINFSDGRTYYADSVKGRFTISRDNAKNTVYLQMNSLKPEDTAVYYCAADVYPSEYDYWGQGTQVTVSS | low polyreactivity
QVQLVESGGGLVQAGGSLRLSCAASGSIFYIYAMGWYRQAPGKERELVAAISWRTSSTYYADSVKGRFTISRDNAKNTVYLQMNSLKPEDTAVYYCAAETWLGSWRQVGMDYWGQGTQVTVSS | high polyreactivity
QVQLVESGGGLVQAGGSLRLSCAASGSIFYKYMGWSRQAPGKERELVAAITWSGGSTYYADSVKGRFTISRDNAKNTVYLQMNSLKPEDPAVYYCAARDYTRYGYGYWGQGTQVTVSS | high polyreactivity
QVQLVESGGGLVQAGGSLRLSCAASGSIFYKYMGWYRQAPGKERELVAAISWSGGRTYYADSVKGRFTISRDNAKNTVYLQMNSLKPEDTAVYYCNRVVLWRIGDKAFEYWGQGTQVTVSS | high polyreactivity
QVQLVESGGGLVQAGGSLRLSCAASGSIFYKYMGWYRQAPGKERELVAAITWSGGSTYYADSVKGRFTISRDNAKNTVYLQMNSLKPEDTAVYYCNADDRHSRVGHSWQDAQFDYWGLGTQVTVSS | high polyreactivity
QVQLVESGGGLVQAGGSLRLSCAASGSIFYKYMGWYRQAPGKERELVAAMTWSGGSTYYADSVKGRFTISRDNAKNTVYLQMNSLKPEDTAVYYCNADDRHSRVGHSWQDAQFDYWGQGTQVTVSS | high polyreactivity
QVQLVESGGGLVQAGGSLRLSCAASGSIFYKYTMGWYRPAPGKERELVAAITKSGGSTYYADSVKGRFTISRDNAKNTVYLQMNSLKPEDTAVYYCAARRYRYYSRGSWGQGTQVTVSS | high polyreactivity
QVQLVESGGGLVQAGGSLRLSCAASGSIFYKYTMGWYRQAPGKERELVAAITKSGGSTYYADSVKGRFTISRDNAKNTVYLQMNSLKPEDTAVYYCAAQIGRSATRGSYGYWGQGTQVTVSS | high polyreactivity
QVQLVESGGGLVQAGGSLRLSCAASGSIFYLNAMGWYRQAPGKERELVAAINSGGTTNYADSVKGRFTISRDNAKNTVYLQMNSLKPEDTAVYYCATDGYYYYYRVYKFDYWGQGTQVTVSS | low polyreactivity
QVQLVESGGGLVQAGGSLRLSCAASGSIFYLYAMGWYRQAPGKERELVAGITWSGGRTYYADSVKGRFTISRDNAKNTVYLQMNSLKPEDTAVYYCAAYASRYRYGYWGQGTQVTVSS | high polyreactivity
QVQLVESGGGLVQAGGSLRLSCAASGSIFYLYTMGWYRQAPWKERELVAGISNGDRTYYADSVKGRFTISRDNAKNTVYLQMNSLKPEDTAVYYCAVTVYWYSRAAEYDYWGQGTQVTVSS | low polyreactivity
QVQLVESGGGLVQAGGSLRLSCAASGSIFYNNAMGWYRQAPGKERELVAAISGSGDSTYYADSVKGRFTISRDNAKNSVYLQMNSLKPEDTAVYYCNATPYVLWWSDMDYWGQGTQVTVSS | high polyreactivity
QVQLVESGGGLVQAGGSLRLSCAASGSIFYNNAMGWYRQAPGKERELVAAISWRGGSTYYADSVKGRFTISRDNAKNTVYLQMNSLKPEDTAVYYCNAGVRYRGFDYWGQGTQVTVSS | high polyreactivity
QVQLVESGGGLVQAGGSLRLSCAASGSIFYNYAMGWYRQAPGKEREFVAAISWSGDTTYYADSVKGRFTISRDNAKNTVYLQMNSLKPEDTAVYYCAAESYIWFWRPYYYWGQGTQVTVSS | low polyreactivity
QVQLVESGGGLVQAGGSLRLSCAASGSIFYNYAMGWYRQAPGKERELVAAIKRSGGITFYADSVKGRFTISRDNAKNTVYLQMNSLKPEVTAVYYCAADRSFGHHFWYTGKRYDYWGQGTKVTVSS | low polyreactivity
QVQLVESGGGLVQAGGSLRLSCAASGSIFYNYAMGWYRQAPGKERQLVATITRSDGSTYYADSVKGRFTISRDNAKNTVYLQMNSLKPEDTAVYYCNADSLWDSAFGYDYWGQGTQVTVSS | low polyreactivity
QVQLVESGGGLVQAGGSLRLSCAASGSIFYPYAMGWYRQAPGKEREFVAVISKGGTNTYYADSVKGRFTISRDNAKNTVYLQMNSLKPEDTAVYYCAARVDTYRAKYYYWGQGTQVTVSS | high polyreactivity
QVQLVESGGGLVQAGGSLRLSCAASGSIFYPYAMGWYRQAPGKERELVAAIRNGGSTYYADSVKGRFTISRDNAKNTVYLQMNSLKPEDTAVYYCAASVRRRHPFEYWGQGTQVTVSS | high polyreactivity
QVQLVESGGGLVQAGGSLRLSCAASGSIFYPYAMGWYRQAPGKERELVAAIRWRGGNTYYADSVKGRFTISRDNAKNTVYLQMNSLKPEDTAVYYCAADGKYLQGFGYYYWGQGTQVTVSS | high polyreactivity

Sequence | polyreactivity (PSR sort gate)
QVQLVESGGGLVQAGGSLRLSCAASGSIFYPYAMGWYRQAPGKERELVAAISDSGDITYYADSVKGRFTISRDNAKNTVYLQMNSLKPEDTAVYYCAADRPWGYDYWGQGTQVSVSS | low polyreactivity
QVQLVESGGGLVQAGGSLRLSCAASGSIFYPYARGWYRQAPGKERELVASITINDGSTYYADSVKGRFTISRDNAKNTVYLQMNSLKPADTAVYYSAVDWLSVTSTIKFEMDYWGQGTQVTVSS | low polyreactivity
QVQLVESGGGLVQAGGSLRLSCAASGSIFYQNAMGWYRQAPGKERELVAAITSSGGSTYYADSVKGRFTISRDNAKNTVYLQMNSLKPEDTAVYYCNKYFSWRPYSYYYWGQGTQVTVSS | high polyreactivity
QVQLVESGGGLVQAGGSLRLSCAASGSIFYQNAMGWYRQAPGKESELVAAISWRGDSTSYADSVKGRFTISRDNAKNTVYLQMNSLKPEDPAVYYCATAHDYAFYRYWYVPSEYNYWGQGTLVTVSS | low polyreactivity
QVQLVESGGGLVQAGGSLRLSCAASGSIFYQYAMGWYRLAPGKERELVARITGSSGSTYYADSVKGRFTISRDNAKNTVYLQKNSLKPEDTAVYYCATDNYLIGDYWGQGTQVTVSS | high polyreactivity
QVQLVESGGGLVQAGGSLRLSCAASGSIFYRNAMGWYRQAPGKERELVAAISASGGSTYYADSVKGRFTISRDNAKITVYLQMNSLKPEDTAVYYCAVEYRKSRSYAPMGYWGQGTQVTVSS | high polyreactivity
QVQLVESGGGLVQAGGSLRLSCAASGSIFYRYAKGWYRQPPGKETELVAAIRTTGGRTYYADSVKGRFTISRDNAKNTVYLQMNSLKPADTAVYYCNALQAGVSYDYWGQGTQVTVSS | high polyreactivity
QVQLVESGGGLVQAGGSLRLSCAASGSIFYRYAMGWSRPAPRKERELVAAISRSGGRTYYADSVKGRFTISRDISKKTVYLQMYSLKAEDTAVYYCADESNVGTDLGGDSWGQGTQVTVSS | high polyreactivity
QVQLVESGGGLVQAGGSLRLSCAASGSIFYRYAMGWYRPAPGKERELVAAITSGGTYYADSVKGRFTISRDNAKNTVYLQMNSLKPEDTAVYYCNRFSYPPSWYDYWGQGTQVTVSS | low polyreactivity
QVQLVESGGGLVQAGGSLRLSCAASGSIFYRYAMGWYRQAPGKERELVAAIRWSGGSTYYADSVKGRFTISRDNAKNTVYLQMNSLKPEDTAVYYCNGTWAYRGHGYWGQGTQVTVSS | low polyreactivity
QVQLVESGGGLVQAGGSLRLSCAASGSIFYRYAMGWYRQAPGKERELVAAISRSGASTYYADSVKGRFTISRDNAKNTVYLQMNSLKPEDTAVYYCNALFSKFTNRYDYWGQGTQVTVSS | high polyreactivity
QVQLVESGGGLVQAGGSLRLSCAASGSIFYRYAMGWYRQAPGKERELVAAISSTGSTYYADSVKGRFTISRDNAKNTVYLQMNSLKPEDTAVYYCAARQGFRSYRRYDYWGQGTQVTVSS | high polyreactivity
QVQLVESGGGLVQAGGSLRLSCAASGSIFYRYAMGWYRQAPGKERELVAAISSTGSTYYADSVKGRFTISRDNAKNTVYLQMNSLKPEDTAVYYCAARQGYRSYRRYDYWGQGTQVTVSS | high polyreactivity
QVQLVESGGGLVQAGGSLRLSCAASGSIFYSNAMGWYRQAPGKERELVAAITLSGRRTYYADSVKGRFTISRDNAKNTVYLQMISLKPEDTADYYCATVPYKTGYKFEYWGQGTQVTVSS | high polyreactivity
QVQLVESGGGLVQAGGSLRLSCAASGSIFYSNAMGWYRQAPGKERELVAAITWSGGSTYYADSVKGRFTFSRDNAKNTVYLQKNSLKPEDTSVYYCNARRNVRQTFGYEDWGQGTQVTVSS | high polyreactivity
QVQLVESGGGLVQAGGSLRLSCAASGSIFYSNVMGWYRLAPGKERELVAAITRGGGTNYADSVKGRFTISRDNAKNTVYLQMNSLKPEDTAVYYCNRDPQKYRWIPRYDYWGQGTQVTVSS | low polyreactivity
QVQLVESGGGLVQAGGSLRLSCAASGSIFYSNVMGWYRQATGKERELVAAIRYSGVGTYYADSVKGRFTISRDNAKNTVYLQMNSLKPEDTAVYYSNAVTKVGYLRRRDYWGQGTQVTVSS | low polyreactivity
QVQLVESGGGLVQAGGSLRLSCAASGSIFYSYAMGWYRQAPGKERELVAAINSGGRTYYADSVKGRFTISRDNAKNTVYLQMNSLKPEDTAVYYCAARHRWGRAYDYWGQGTQVTVSS | high polyreactivity
QVQLVESGGGLVQAGGSLRLSCAASGSIFYSYAMGWYRQAPGKERELVAAITTGGSTYYADSVKGRFTISRDNAKNTVYLQMNSLKPEDTAVYYCAADFKPTVTNEPKELDYWGQGTQVTVSS | low polyreactivity
QVQLVESGGGLVQAGGSLRLSCAASGSIFYSYAMGWYRQAPGKERELVAGIRSDGNTNYADSVKGRFTISRDNAKNTVYLQMNSLKPEDTAVYYCARLRYFLLNGSLRYGTSDRDYWGQGTQVTVSS | high polyreactivity

Reference: the nanobody polyreactivity screen of Harvey et al. (2022)
